Test results published in US20230002496A1 (STAIDSON BEIJING BIOPHARMACEUTICALS, published 2023).

T1: human GM-CSFRα, full length on cells (human, UniProt P15509 23-400)
T1 sequence: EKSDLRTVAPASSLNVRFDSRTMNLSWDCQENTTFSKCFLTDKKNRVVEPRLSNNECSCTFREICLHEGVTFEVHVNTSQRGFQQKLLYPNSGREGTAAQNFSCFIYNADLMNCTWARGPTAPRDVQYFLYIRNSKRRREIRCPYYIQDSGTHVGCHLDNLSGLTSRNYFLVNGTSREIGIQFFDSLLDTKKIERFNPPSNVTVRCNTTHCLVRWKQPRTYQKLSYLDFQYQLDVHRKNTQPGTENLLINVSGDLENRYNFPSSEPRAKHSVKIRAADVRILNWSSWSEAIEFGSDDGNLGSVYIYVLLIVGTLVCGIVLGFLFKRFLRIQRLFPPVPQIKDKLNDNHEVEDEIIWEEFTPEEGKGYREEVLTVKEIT


Molecular target: T1, human GM-CSFRα, full length on cells
Assay: cell-based or functional assay

Row | Binder | IC50, TF-1 cell proliferation
1 | E35-scFv LD92T (scFv, V domains shown) VH: QMQLVQSGAEVKKPGASVKVSCKVSGYTLTELSIHWVRQAPGKGLEWMGGFDPEDGETIYAQKFQGRVTMTGDTSTDTAYLELSSLRSEDTALYYCATGRYTSLATTYGFDYWGQGTLVTVSS VL: EIVMTQSPATLSLSPGERATLSCRASQSVSSYLAWYQQKPGQAPRLLIYGASSRATGIPDRFSGSGSGTDFTLTISRLEPEDFAVYYCQQYTNWPYTFGQGTKLEIK | 0.494 µg/mL
2 | E35-scFv LN93S (scFv, V domains shown) VH: QMQLVQSGAEVKKPGASVKVSCKVSGYTLTELSIHWVRQAPGKGLEWMGGFDPEDGETIYAQKFQGRVTMTGDTSTDTAYLELSSLRSEDTALYYCATGRYTSLATTYGFDYWGQGTLVTVSS VL: EIVMTQSPATLSLSPGERATLSCRASQSVSSYLAWYQQKPGQAPRLLIYGASSRATGIPDRFSGSGSGTDFTLTISRLEPEDFAVYYCQQYDSWPYTFGQGTKLEIK | 0.3 µg/mL
3 | E35-scFv LD92K (scFv, V domains shown) VH: QMQLVQSGAEVKKPGASVKVSCKVSGYTLTELSIHWVRQAPGKGLEWMGGFDPEDGETIYAQKFQGRVTMTGDTSTDTAYLELSSLRSEDTALYYCATGRYTSLATTYGFDYWGQGTLVTVSS VL: EIVMTQSPATLSLSPGERATLSCRASQSVSSYLAWYQQKPGQAPRLLIYGASSRATGIPDRFSGSGSGTDFTLTISRLEPEDFAVYYCQQYKNWPYTFGQGTKLEIK | 0.64 µg/mL
4 | E35-scFv LN93F (scFv, V domains shown) VH: QMQLVQSGAEVKKPGASVKVSCKVSGYTLTELSIHWVRQAPGKGLEWMGGFDPEDGETIYAQKFQGRVTMTGDTSTDTAYLELSSLRSEDTALYYCATGRYTSLATTYGFDYWGQGTLVTVSS VL: EIVMTQSPATLSLSPGERATLSCRASQSVSSYLAWYQQKPGQAPRLLIYGASSRATGIPDRFSGSGSGTDFTLTISRLEPEDFAVYYCQQYDFWPYTFGQGTKLEIK | 0.3 µg/mL
5 | E35-scFv LD92P (scFv, V domains shown) VH: QMQLVQSGAEVKKPGASVKVSCKVSGYTLTELSIHWVRQAPGKGLEWMGGFDPEDGETIYAQKFQGRVTMTGDTSTDTAYLELSSLRSEDTALYYCATGRYTSLATTYGFDYWGQGTLVTVSS VL: EIVMTQSPATLSLSPGERATLSCRASQSVSSYLAWYQQKPGQAPRLLIYGASSRATGIPDRFSGSGSGTDFTLTISRLEPEDFAVYYCQQYPNWPYTFGQGTKLEIK | 0.881 µg/mL
6 | E35-scFv LD92I (scFv, V domains shown) VH: QMQLVQSGAEVKKPGASVKVSCKVSGYTLTELSIHWVRQAPGKGLEWMGGFDPEDGETIYAQKFQGRVTMTGDTSTDTAYLELSSLRSEDTALYYCATGRYTSLATTYGFDYWGQGTLVTVSS VL: EIVMTQSPATLSLSPGERATLSCRASQSVSSYLAWYQQKPGQAPRLLIYGASSRATGIPDRFSGSGSGTDFTLTISRLEPEDFAVYYCQQYINWPYTFGQGTKLEIK | 0.597 µg/mL
7 | E35-scFv LN93Y (scFv, V domains shown) VH: QMQLVQSGAEVKKPGASVKVSCKVSGYTLTELSIHWVRQAPGKGLEWMGGFDPEDGETIYAQKFQGRVTMTGDTSTDTAYLELSSLRSEDTALYYCATGRYTSLATTYGFDYWGQGTLVTVSS VL: EIVMTQSPATLSLSPGERATLSCRASQSVSSYLAWYQQKPGQAPRLLIYGASSRATGIPDRFSGSGSGTDFTLTISRLEPEDFAVYYCQQYDYWPYTFGQGTKLEIK | 0.156 µg/mL
8 | E35-scFv LN93G (scFv, V domains shown) VH: QMQLVQSGAEVKKPGASVKVSCKVSGYTLTELSIHWVRQAPGKGLEWMGGFDPEDGETIYAQKFQGRVTMTGDTSTDTAYLELSSLRSEDTALYYCATGRYTSLATTYGFDYWGQGTLVTVSS VL: EIVMTQSPATLSLSPGERATLSCRASQSVSSYLAWYQQKPGQAPRLLIYGASSRATGIPDRFSGSGSGTDFTLTISRLEPEDFAVYYCQQYDGWPYTFGQGTKLEIK | 0.205 µg/mL
9 | E35-scFv HE31N (scFv, V domains shown) VH: QMQLVQSGAEVKKPGASVKVSCKVSGYTLTNLSIHWVRQAPGKGLEWMGGFDPEDGETIYAQKFQGRVTMTGDTSTDTAYLELSSLRSEDTALYYCATGRYTSLATTYGFDYWGQGTLVTVSS VL: EIVMTQSPATLSLSPGERATLSCRASQSVSSYLAWYQQKPGQAPRLLIYGASSRATGIPDRFSGSGSGTDFTLTISRLEPEDFAVYYCQQYDNWPYTFGQGTKLEIK | 0.11 µg/mL
10 | E35-scFv LD92G (scFv, V domains shown) VH: QMQLVQSGAEVKKPGASVKVSCKVSGYTLTELSIHWVRQAPGKGLEWMGGFDPEDGETIYAQKFQGRVTMTGDTSTDTAYLELSSLRSEDTALYYCATGRYTSLATTYGFDYWGQGTLVTVSS VL: EIVMTQSPATLSLSPGERATLSCRASQSVSSYLAWYQQKPGQAPRLLIYGASSRATGIPDRFSGSGSGTDFTLTISRLEPEDFAVYYCQQYGNWPYTFGQGTKLEIK | 0.522 µg/mL
11 | E35-scFv LN93A (scFv, V domains shown) VH: QMQLVQSGAEVKKPGASVKVSCKVSGYTLTELSIHWVRQAPGKGLEWMGGFDPEDGETIYAQKFQGRVTMTGDTSTDTAYLELSSLRSEDTALYYCATGRYTSLATTYGFDYWGQGTLVTVSS VL: EIVMTQSPATLSLSPGERATLSCRASQSVSSYLAWYQQKPGQAPRLLIYGASSRATGIPDRFSGSGSGTDFTLTISRLEPEDFAVYYCQQYDAWPYTFGQGTKLEIK | 0.21 µg/mL
12 | E35-scFv LN93E (scFv, V domains shown) VH: QMQLVQSGAEVKKPGASVKVSCKVSGYTLTELSIHWVRQAPGKGLEWMGGFDPEDGETIYAQKFQGRVTMTGDTSTDTAYLELSSLRSEDTALYYCATGRYTSLATTYGFDYWGQGTLVTVSS VL: EIVMTQSPATLSLSPGERATLSCRASQSVSSYLAWYQQKPGQAPRLLIYGASSRATGIPDRFSGSGSGTDFTLTISRLEPEDFAVYYCQQYDEWPYTFGQGTKLEIK | 0.081 µg/mL
13 | E35-scFv LN93D (scFv, V domains shown) VH: QMQLVQSGAEVKKPGASVKVSCKVSGYTLTELSIHWVRQAPGKGLEWMGGFDPEDGETIYAQKFQGRVTMTGDTSTDTAYLELSSLRSEDTALYYCATGRYTSLATTYGFDYWGQGTLVTVSS VL: EIVMTQSPATLSLSPGERATLSCRASQSVSSYLAWYQQKPGQAPRLLIYGASSRATGIPDRFSGSGSGTDFTLTISRLEPEDFAVYYCQQYDDWPYTFGQGTKLEIK | 0.045 µg/mL
14 | E35-scFv LD92R (scFv, V domains shown) VH: QMQLVQSGAEVKKPGASVKVSCKVSGYTLTELSIHWVRQAPGKGLEWMGGFDPEDGETIYAQKFQGRVTMTGDTSTDTAYLELSSLRSEDTALYYCATGRYTSLATTYGFDYWGQGTLVTVSS VL: EIVMTQSPATLSLSPGERATLSCRASQSVSSYLAWYQQKPGQAPRLLIYGASSRATGIPDRFSGSGSGTDFTLTISRLEPEDFAVYYCQQYRNWPYTFGQGTKLEIK | 0.495 µg/mL
15 | E35-scFv HE31G (scFv, V domains shown) VH: QMQLVQSGAEVKKPGASVKVSCKVSGYTLTGLSIHWVRQAPGKGLEWMGGFDPEDGETIYAQKFQGRVTMTGDTSTDTAYLELSSLRSEDTALYYCATGRYTSLATTYGFDYWGQGTLVTVSS VL: EIVMTQSPATLSLSPGERATLSCRASQSVSSYLAWYQQKPGQAPRLLIYGASSRATGIPDRFSGSGSGTDFTLTISRLEPEDFAVYYCQQYDNWPYTFGQGTKLEIK | 0.116 µg/mL
16 | E35-scFv LD92H (scFv, V domains shown) VH: QMQLVQSGAEVKKPGASVKVSCKVSGYTLTELSIHWVRQAPGKGLEWMGGFDPEDGETIYAQKFQGRVTMTGDTSTDTAYLELSSLRSEDTALYYCATGRYTSLATTYGFDYWGQGTLVTVSS VL: EIVMTQSPATLSLSPGERATLSCRASQSVSSYLAWYQQKPGQAPRLLIYGASSRATGIPDRFSGSGSGTDFTLTISRLEPEDFAVYYCQQYHNWPYTFGQGTKLEIK | 0.53 µg/mL
17 | E35-scFv LN93T (scFv, V domains shown) VH: QMQLVQSGAEVKKPGASVKVSCKVSGYTLTELSIHWVRQAPGKGLEWMGGFDPEDGETIYAQKFQGRVTMTGDTSTDTAYLELSSLRSEDTALYYCATGRYTSLATTYGFDYWGQGTLVTVSS VL: EIVMTQSPATLSLSPGERATLSCRASQSVSSYLAWYQQKPGQAPRLLIYGASSRATGIPDRFSGSGSGTDFTLTISRLEPEDFAVYYCQQYDTWPYTFGQGTKLEIK | 0.14 µg/mL
18 | E35-scFv LD92S (scFv, V domains shown) VH: QMQLVQSGAEVKKPGASVKVSCKVSGYTLTELSIHWVRQAPGKGLEWMGGFDPEDGETIYAQKFQGRVTMTGDTSTDTAYLELSSLRSEDTALYYCATGRYTSLATTYGFDYWGQGTLVTVSS VL: EIVMTQSPATLSLSPGERATLSCRASQSVSSYLAWYQQKPGQAPRLLIYGASSRATGIPDRFSGSGSGTDFTLTISRLEPEDFAVYYCQQYSNWPYTFGQGTKLEIK | 0.598 µg/mL
19 | E35-scFv LN93M (scFv, V domains shown) VH: QMQLVQSGAEVKKPGASVKVSCKVSGYTLTELSIHWVRQAPGKGLEWMGGFDPEDGETIYAQKFQGRVTMTGDTSTDTAYLELSSLRSEDTALYYCATGRYTSLATTYGFDYWGQGTLVTVSS VL: EIVMTQSPATLSLSPGERATLSCRASQSVSSYLAWYQQKPGQAPRLLIYGASSRATGIPDRFSGSGSGTDFTLTISRLEPEDFAVYYCQQYDMWPYTFGQGTKLEIK | 0.27 µg/mL
20 | E35-scFv LD92M (scFv, V domains shown) VH: QMQLVQSGAEVKKPGASVKVSCKVSGYTLTELSIHWVRQAPGKGLEWMGGFDPEDGETIYAQKFQGRVTMTGDTSTDTAYLELSSLRSEDTALYYCATGRYTSLATTYGFDYWGQGTLVTVSS VL: EIVMTQSPATLSLSPGERATLSCRASQSVSSYLAWYQQKPGQAPRLLIYGASSRATGIPDRFSGSGSGTDFTLTISRLEPEDFAVYYCQQYMNWPYTFGQGTKLEIK | 0.507 µg/mL
